The record followed here is paper PMC10397247.

The target in experiment [1] is T1, 4H40-bA.
T1 chain: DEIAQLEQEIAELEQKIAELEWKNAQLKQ
Briefly: two-hybrid library CCNG1.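 Further: natural log of median RNA to DNA barcode read ratio; higher means stronger binding.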

The target in experiment [2] is T2, 4H477-bA.
T2 chain: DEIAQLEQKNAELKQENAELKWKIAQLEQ
Briefly: two-hybrid library CCNG1.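 Further: natural log of median RNA to DNA barcode read ratio; higher means stronger binding.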

For experiment [3], the target named is T3, 4H492-bA.
T3 chain: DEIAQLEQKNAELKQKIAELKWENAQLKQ
In words: two-hybrid library CCNG1.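 Further: natural log of median RNA to DNA barcode read ratio; higher means stronger binding.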

The target of experiment [4] is T4, 4H741-bA.
T4 chain: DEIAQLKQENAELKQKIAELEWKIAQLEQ
Briefly: two-hybrid library CCNG1.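 Further: natural log of median RNA to DNA barcode read ratio; higher means stronger binding.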

The target in experiment [5] is T5, 4H949-bA.
T5 chain: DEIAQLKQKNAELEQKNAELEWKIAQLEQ
Briefly: two-hybrid library CCNG1.

Experiment [6] has as its target T6, 4H3664-AA.
T6 chain: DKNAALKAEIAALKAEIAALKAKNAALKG
In words: two-hybrid library CCmax.

Experiment [7] addresses T7, 4H369-AA.
T7 chain: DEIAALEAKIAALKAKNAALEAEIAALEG
Briefly: two-hybrid library CCmax. As to conditions: mean of both orientations.

The target in experiment [8] is T8, 4H3922-AA.
T8 chain: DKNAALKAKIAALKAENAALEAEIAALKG
In words: two-hybrid library CCmax. The conditions noted are these: mean of both orientations.

Experiment [9] addresses T9, 4H4033-AA.
T9 chain: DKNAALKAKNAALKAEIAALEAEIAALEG
In words: two-hybrid library CCmax. The conditions noted are these: mean of both orientations.

The target in experiment [10] is T10, 4H481-AA.
T10 chain: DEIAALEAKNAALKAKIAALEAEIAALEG
In words: two-hybrid library CCmax. The conditions noted are these: mean of both orientations.

The target in experiment [11] is T11, 4H55-AA.
T11 chain: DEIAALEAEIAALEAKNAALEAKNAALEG
In words: two-hybrid library CCmax. As to conditions: mean of both orientations.

The target of experiment [12] is T12, 4H662-AA.
T12 chain: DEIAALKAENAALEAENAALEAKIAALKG
Briefly: two-hybrid library CCmax. The conditions noted are these: mean of both orientations.

Experiment [13] deals with T13, 4H3381-bN.
T13 chain: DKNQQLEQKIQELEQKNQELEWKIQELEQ
Briefly: two-hybrid library CCNG1.

Experiment [14] has as its target T14, 4H349-bN.
T14 chain: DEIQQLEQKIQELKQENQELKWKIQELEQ
Briefly: two-hybrid library CCNG1.

In experiment [15] the target is T15, 4H56-bN.
T15 chain: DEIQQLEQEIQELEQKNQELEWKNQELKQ
In words: two-hybrid library CCNG1.

Experiment [16] concerns the target T16, 4H730-bN.
T16 chain: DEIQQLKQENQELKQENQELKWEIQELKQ
Briefly: two-hybrid library CCNG1.

In experiment [17] the target is T17, 4H796-bN.
T17 chain: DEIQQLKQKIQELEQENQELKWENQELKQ
Briefly: two-hybrid library CCNG1.

Experiment [18] concerns the target T18, 4H932-bN.
T18 chain: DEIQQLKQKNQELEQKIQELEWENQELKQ
Briefly: two-hybrid library CCNG1.

The target in experiment [19] is T19, 4H949-bN.
T19 chain: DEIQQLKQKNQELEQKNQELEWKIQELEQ
In words: two-hybrid library CCNG1.

Experiment [20] has as its target T20, 4H40-bN.
T20 chain: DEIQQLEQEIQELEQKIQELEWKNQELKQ
In words: two-hybrid library CCNG1.

In experiment [21] the target is T21, 4H477-bN.
T21 chain: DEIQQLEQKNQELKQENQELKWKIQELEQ
Briefly: two-hybrid library CCNG1.

Experiment [22] concerns the target T22, 4H492-bN.
T22 chain: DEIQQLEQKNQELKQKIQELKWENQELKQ
In words: two-hybrid library CCNG1.

In experiment [23] the target is T23, 4H741-bN.
T23 chain: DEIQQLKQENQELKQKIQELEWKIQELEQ
Briefly: two-hybrid library CCNG1.

The target of experiment [24] is T24, 4H348-bA.
T24 chain: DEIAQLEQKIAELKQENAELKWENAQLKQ
In words: two-hybrid library CCNG1.

In experiment [25] the target is T25, 4H2931-AA.
T25 chain: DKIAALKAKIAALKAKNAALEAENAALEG
In words: two-hybrid library CCmax.

The target in experiment [26] is T26, 4H3001-AA.
T26 chain: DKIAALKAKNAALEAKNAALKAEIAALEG
Briefly: two-hybrid library CCmax. The conditions noted are these: mean of both orientations.

In experiment [27] the target is T27, 4H3015-AA.
T27 chain: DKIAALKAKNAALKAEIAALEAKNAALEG
Briefly: two-hybrid library CCmax. The conditions noted are these: mean of both orientations.

In experiment [28] the target is T28, 4H3073-AA.
T28 chain: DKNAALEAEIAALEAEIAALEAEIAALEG
In words: two-hybrid library CCmax.

The target in experiment [29] is T29, 4H3438-AA.
T29 chain: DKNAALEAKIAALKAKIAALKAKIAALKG
Briefly: two-hybrid library CCmax. As to conditions: mean of both orientations.

Experiment [30] addresses T30, 4H347-AA.
T30 chain: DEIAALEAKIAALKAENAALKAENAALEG
Briefly: two-hybrid library CCmax. The conditions noted are these: mean of both orientations.

The target of experiment [31] is T31, 4H406-AA.
T31 chain: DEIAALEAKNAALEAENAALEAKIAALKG
Briefly: two-hybrid library CCmax. The conditions noted are these: mean of both orientations.

Experiment [32] addresses T32, 4H452-AA.
T32 chain: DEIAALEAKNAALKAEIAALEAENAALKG
Briefly: two-hybrid library CCmax. The conditions noted are these: mean of both orientations.

Experiment [33] concerns the target T33, 4H56-AA.
T33 chain: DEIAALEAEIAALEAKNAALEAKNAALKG
In words: two-hybrid library CCmax. As to conditions: mean of both orientations.

Experiment [34] deals with T34, 4H_APH.
T34 chain: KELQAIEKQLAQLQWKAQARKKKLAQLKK
Briefly: two-hybrid library CCmax. As to conditions: mean of both orientations.

For experiment [35], the target named is T35, 4H_BCR.
T35 chain: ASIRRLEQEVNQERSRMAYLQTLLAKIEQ
In words: two-hybrid library CCmax. The conditions noted are these: mean of both orientations.

In experiment [36] the target is 4H_GCN4. In words: two-hybrid library CCmax. As to conditions: mean of both orientations.
Chain of 4H_GCN4 (chain, as listed by the source): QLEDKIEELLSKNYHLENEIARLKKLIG
Experiment [37] concerns the target GCN2_T. In words: two-hybrid library CCmax.

As for DEIAQLEQEIAELEQKIAELEWKNAQLKQ [4H40-bA], the interaction score in experiment [1] was 1.76; in experiment [2] it was -1.02; in experiment [3], 1.72; in experiment [4], -0.423; in experiment [5], -1.8.
For DKNAALKAEIAALKAEIAALKAKNAALKG [4H3664-AA], the interaction score was 0.563 in experiment [6]; -1.44 in [7]; -1.57 in experiment [8]; -1.55 in experiment [9]; -1.04 in experiment [10]; -1.04 in experiment [11]. Also, in [12], the interaction score is -1.5.
For the molecule DKNQQLEQKIQELEQKNQELEWKIQELEQ [4H3381-bN], the interaction score was 0.302 in experiment [13]; -0.946 in experiment [14]; -1.09 in experiment [15]; -1.25 in experiment [16]; -1.3 in experiment [17]; -0.998 in experiment [18]. Besides, in [19], the interaction score is -1.1.
Regarding DEIQQLEQEIQELEQKIQELEWKNQELKQ [4H40-bN], the interaction score in [20] is 0.212; in [21], 0.0764; in experiment [22], -0.862; in experiment [23], -0.956.
In the case of DEIAQLEQKIAELKQENAELKWENAQLKQ [4H348-bA], the interaction score in [24] is 0.473; in [1] it was -0.298; in experiment [2], -1.23; in experiment [3], -0.0783; in experiment [4] it was -0.761.
As to DKIAALKAKIAALKAKNAALEAENAALEG [4H2931-AA], the interaction score in [25] is -1.66; in experiment [26], -1.79; in [27], -2.54; in experiment [28] it was 0.803; in experiment [29], -1.54; in experiment [30], -1.41. Moreover, the interaction score is -0.98 in experiment [31]; -1.98 in experiment [32]; 1.81 in experiment [33]; -1.87 in [34]; -1.73 in [35]; -2.51 in experiment [36]. In experiment [37], the interaction score was -2.11.
